We go through one molecule from publication PMC9320966 (Arthritis & Rheumatology (Hoboken, N.j.), 2022).

This assay concerns the target COMP in mouse joint cartilage (Mus musculus, UniProt Q9R0G6). Nature of the assay: immunostaining of cells or tissue.

Chain of COMP in mouse joint cartilage (Q9R0G6 20-755): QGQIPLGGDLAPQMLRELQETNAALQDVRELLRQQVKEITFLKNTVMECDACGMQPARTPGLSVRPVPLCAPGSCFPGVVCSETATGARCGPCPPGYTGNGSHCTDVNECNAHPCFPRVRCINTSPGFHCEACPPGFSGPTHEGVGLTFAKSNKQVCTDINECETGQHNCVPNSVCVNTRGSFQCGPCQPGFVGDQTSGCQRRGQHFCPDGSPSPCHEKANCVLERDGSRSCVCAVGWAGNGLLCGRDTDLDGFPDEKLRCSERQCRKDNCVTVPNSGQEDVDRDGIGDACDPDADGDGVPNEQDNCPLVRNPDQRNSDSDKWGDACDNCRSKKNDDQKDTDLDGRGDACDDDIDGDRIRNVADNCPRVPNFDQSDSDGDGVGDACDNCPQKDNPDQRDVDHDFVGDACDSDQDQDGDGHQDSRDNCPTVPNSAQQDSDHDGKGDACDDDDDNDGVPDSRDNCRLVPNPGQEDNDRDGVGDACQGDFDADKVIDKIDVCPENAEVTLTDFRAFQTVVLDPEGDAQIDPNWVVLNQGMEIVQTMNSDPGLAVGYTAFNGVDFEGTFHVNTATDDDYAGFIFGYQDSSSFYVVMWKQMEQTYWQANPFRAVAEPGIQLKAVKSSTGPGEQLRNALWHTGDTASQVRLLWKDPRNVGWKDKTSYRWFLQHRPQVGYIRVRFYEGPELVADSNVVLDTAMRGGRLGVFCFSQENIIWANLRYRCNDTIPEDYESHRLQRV

B1: murine monoclonal anti-COMP antibody 15A11 (antibody, V domains shown)
VH: QVQLQQSGAELAKPGASVNLSCKASGYTFTNYWVHWVKQRPGQGLEWIGYINPSNTYISYNQQFKDKATLTADKSSSTAYMQLSRLTYEDSSVYYCARGGFFYDYDVWYFDVWGTGTTVTVSS
VL: DVLMTQIPLSLPVSLGDQASISCRSSQNIVHSNGNTYLEWYLQKPGQSPKLLIYKVSNRFSGVPDRFSGSGSGTDFTLKISRVEAEDLGVYYCFQGSHVPFTFGSGTKLEIK
Consider B1, for which the binding result was “binds”.
